Read-outs that look alike come from different tables or passages of the source. Each block holds one binder with its values, some of them ahead of it.
What was measured:
[1] = target: T1, Fc-tagged recombinant mouse TREM1 (R&D systems #1187-TR) (mouse, UniProt Q9JKE2 21-202); assay: MSD ligand binding PK assay, plate coated with Fc-tagged recombinant mouse TREM1
T1 construct: Bought reagent; not shown: Fc tag
T1 sequence: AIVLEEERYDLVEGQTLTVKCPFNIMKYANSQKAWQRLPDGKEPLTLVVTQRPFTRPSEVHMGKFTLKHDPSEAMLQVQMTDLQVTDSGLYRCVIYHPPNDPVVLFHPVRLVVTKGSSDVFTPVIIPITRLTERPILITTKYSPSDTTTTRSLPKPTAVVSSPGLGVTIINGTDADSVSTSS
Procedure: A 96-well high-binding MSD plate was coated with Fc-tagged recombinant mouse TREM1 (R&D systems #1187-TR). After blocking, samples were added to the plate which bound the TREM1 protein. […] ECL signal was produced by the secondary antibody after the plate received an electric signal from an MSD plate reader. The ECL signal was detected and quantified by the plate reader.

[2] = target: T2, Chimeric cynomolgus TREM1-mIgG Fc (cynomolgus, UniProt A0A2K5VHG8 21-204); assay: SPR (Biacore T200), avid format: cynomolgus TREM1-mIgG Fc captured, antibody as analyte
T2 construct: not shown: mouse IgG Fc
T2 sequence: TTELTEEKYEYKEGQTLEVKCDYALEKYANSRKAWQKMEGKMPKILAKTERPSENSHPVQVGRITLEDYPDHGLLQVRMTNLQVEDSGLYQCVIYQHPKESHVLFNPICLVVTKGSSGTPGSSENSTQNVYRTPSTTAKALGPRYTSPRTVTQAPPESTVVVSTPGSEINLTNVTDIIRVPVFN
Procedure: All data were collected at 25° C. 10 mM HEPES pH 7.4, 150 mM NaCl, 3 mM EDTA, 0.05% (v/V) surfactant P20 was used as mobile buffer and for all dilution of mAbs. Anti-mouse Fc was immobilized on a CM4 biosensor chip (GE Healthcare) using amine coupling chemistry. Chimeric cynomolgus TREM1-mIgG Fc was captured on one flow cell and another flow cell (used as reference surface) was left blank. […] After each cycle, the surface was regenerated by injecting a glycine HCl buffer (10 mM, pH 2.0). BIAevaluation software was used to perform the kinetic evaluation. Kinetic evaluation was through generation of sensorgrams which were fitted with a 1:1 Langmuir binding model.

[3] = target: T3, hCD16 on NFAT-luciferase reporter Jurkat cells (Promega) (human, UniProt P08637 17-254); assay: cell-based or functional assay
T3 sequence (P08637 17-254 F176V): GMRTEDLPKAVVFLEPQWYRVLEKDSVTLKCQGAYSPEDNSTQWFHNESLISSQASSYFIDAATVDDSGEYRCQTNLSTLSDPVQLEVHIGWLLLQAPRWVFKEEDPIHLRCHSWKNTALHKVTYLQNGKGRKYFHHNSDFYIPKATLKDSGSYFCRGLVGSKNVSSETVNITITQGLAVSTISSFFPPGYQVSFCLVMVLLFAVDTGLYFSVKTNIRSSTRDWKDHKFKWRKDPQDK

[4] = target: T4, cynomolgus TREM1 on cells (cynomolgus, UniProt A0A2K5VHG8 21-233); assay: flow cytometry on HEK293 cells over-expressing cynomolgus TREM1
T4 construct: whole, on cells; Used for HEK293 cells over-expressing cynomolgus TREM1 and for primary cynomolgus monocytes; also called cynoTREM1; Cyno TREM1 cells
T4 sequence: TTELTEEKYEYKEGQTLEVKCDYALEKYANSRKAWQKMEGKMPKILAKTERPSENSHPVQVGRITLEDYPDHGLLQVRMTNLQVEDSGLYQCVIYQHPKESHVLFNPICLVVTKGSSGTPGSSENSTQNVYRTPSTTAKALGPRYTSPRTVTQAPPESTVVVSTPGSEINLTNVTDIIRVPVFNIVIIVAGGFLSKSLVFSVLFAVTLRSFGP

[5] = target: T3, hCD16 on NFAT-luciferase reporter …; assay: cell-based or functional assay; remark: listed apart in the source
[6] = target: T5, mouse TREM1 on HEK293 cells (mouse, UniProt Q9JKE2 21-230); assay: flow cytometry on HEK293 cells over-expressing mouse TREM1, Alexa 647 anti-human Fcγ secondary antibody
T5 construct: also called mTREM1; mouse TREM1 over-expressing cells
T5 sequence: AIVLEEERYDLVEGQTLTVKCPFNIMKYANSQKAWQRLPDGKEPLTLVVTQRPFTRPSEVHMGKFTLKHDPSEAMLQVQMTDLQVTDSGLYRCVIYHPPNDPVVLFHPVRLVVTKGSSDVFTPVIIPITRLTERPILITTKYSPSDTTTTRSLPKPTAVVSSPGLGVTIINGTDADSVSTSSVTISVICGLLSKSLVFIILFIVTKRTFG
Procedure: (§1) HEK293 over-expressing cynomolgus or mouse TREM1 in log phase growth were harvested from culture, washed, and plated in 96 well U bottom plates at 1×10⁵ cells/well. […] An Alexa 647-conjugated anti-human Fcγ secondary antibody (Jackson Immunoresearch) diluted at 1:500 was used to detect bound primary antibody. The secondary antibody was incubated with the cells for 30 mins on ice. […] Fluorescence signal from bound antibody was assessed by flow cytometry (ThermoFisher Attune NxT). EC50 values were calculated in Prism Software (Graphpad).

[7] = target: T4, cynomolgus TREM1 on cells; assay: flow cytometry on HEK293 cells over-expressing cynomolgus TREM1; remark: listed apart in the source
[8] = target: T4, cynomolgus TREM1 on cells; assay: flow cytometry on cynomolgus peripheral blood monocytes, experiment 2
Procedure: (§2) Fresh cynomolgus monkey blood (Worldwide Primates Inc) was red cell lysed and washed to enrich PBMC and granulocyte content. Cells were plated and Fc receptors were blocked with a combination of human serum (Jackson Immunoresearch) and a peptide-based FcR block solution (Innovex Biosciences). […] All antibodies used were directly conjugated and data was acquired by flow cytometry (ThermoFisher Attune NxT). EC50 values were calculated in Prism Software (Graphpad).

[9] = target: T4, cynomolgus TREM1 on cells; assay: flow cytometry on HEK293 cells over-expressing cynomolgus TREM1, experiment 2
Procedure: as §1, with “HEK293 cells” for “HEK293”, “cynomolgus” for “cynomolgus or mouse”

[10] = target: T4, cynomolgus TREM1 on cells; assay: flow cytometry on HEK293 cells over-expressing cynomolgus TREM1, experiment 1
Procedure: as §1, with “HEK293 cells” for “HEK293”, “cynomolgus” for “cynomolgus or mouse”

[11] = target: T3, hCD16 on NFAT-luciferase reporter …; assay: cell-based or functional assay; remark: listed apart in the source
[12] = target: T6, recombinant human His-tagged FcγRI (human, UniProt P12314 16-288); assay: ELISA on plates coated with 1 ug/ml His-tagged human FcγRI (CD64), detection with HRP-conjugated anti-human F(ab')2
T6 construct: also called hFcγRI; not shown: His tag
T6 sequence (P12314 16-288 limits assumed): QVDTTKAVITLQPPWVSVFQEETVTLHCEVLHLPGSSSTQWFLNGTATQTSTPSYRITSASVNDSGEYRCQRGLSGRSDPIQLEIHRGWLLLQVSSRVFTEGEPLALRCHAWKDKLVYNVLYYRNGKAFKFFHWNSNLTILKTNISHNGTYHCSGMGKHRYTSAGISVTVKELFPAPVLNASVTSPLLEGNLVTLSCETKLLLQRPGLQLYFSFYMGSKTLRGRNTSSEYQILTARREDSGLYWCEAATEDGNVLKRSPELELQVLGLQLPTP
Procedure: 1 ug/ml of the indicated recombinant human His-tagged FcγR proteins (Sino Biologicals) were coated on MaxiSorp plates overnight at 4° c. […] Fc-mediated binding of the antibodies to the coated FcγR proteins was detected with a HRP-conjugated Fab′2 fragment against the Fab′2 portion of human IgG (Jackson Immunoresearch). TMB substrate (ThermoFisher) was used to quantitate the amount of HRP-conjugated secondary reagent bound to primary antibodies and H₃PO₄ was used to stop the reaction. Absorbance at 450 nm was measured using the Spectramax plate reader ([…]).

[13] = target: T4, cynomolgus TREM1 on cells; assay: flow cytometry on cynomolgus peripheral blood monocytes, experiment 1
Procedure: as §2

[14] = target: T2, Chimeric cynomolgus TREM1-mIgG Fc; assay: SPR (Biacore T200), avid format: cynomolgus TREM1-mIgG Fc captured, antibody as analyte; remark: listed apart in the source
[15] = target: T4, cynomolgus TREM1 on cells; assay: flow cytometry on HEK293 cells over-expressing cynomolgus TREM1, experiment 3
Procedure: as §1, with “HEK293 cells” for “HEK293”, “cynomolgus” for “cynomolgus or mouse”

[16] = target: T4, cynomolgus TREM1 on cells; assay: flow cytometry on HEK293 cells over-expressing cynomolgus TREM1; cells overexpressing cynomolgus TREM1; EC50 about 6-fold weaker than parent (4.61 nM)
[17] = target: T4, cynomolgus TREM1 on cells; assay: flow cytometry on HEK293 cells over-expressing cynomolgus TREM1; cells overexpressing cynomolgus TREM1; EC50 about 12-fold weaker than parent (4.61 nM); background binding Y

binding result [1]: binds
B1: afucosylated PI-4928 anti-TREM1 antibody (antibody, mouse IgG2a, kappa, V domains shown)
VH: QVQLKESGPGLVQPSQTLSLTCTVSGFSITSSNVYWFRQPPGKGLEWMGNIWGDGSTDYNSSLKSRLTLSRDTSKNQVFLKINSLQSEDTATYFCTRSWEYYFDHWGQGVVVTVSS
VL: DIVLTQSPALAVSPGQRATLSCRASQSVTLSNVNLMNWYQQKPGQQPKLLIYHASNLASGIPTRFSGSGSGTDFTLTIDPVQADDIAAYYCQQSGESPRTFGGGTKVELKR
modifications: afucosylated
notes: Anti-mouse TREM1 surrogate, mIgG2a

Kd [2]: 2.99 nM
hCD16 ADCC assay EC50 [3]: 0.36 nM
EC50 [4]: 6.61 nM
B2: afucosylated PI-4026-5-M100 (parent) (antibody, human IgG1, kappa)
heavy: not shown
light: DIQLTQSPSSLSASVGDRVTITCSASSSVSYMHWYQQKPGKAPKLLLYTTSNLASGVPSRFSGSGSGTDYTLTISSLQPEDFATYYCHQWSGYPTFGQGTKLEIKRTVAAPSVFIFPPSDEQLKSGTASVVCLLNNFYPREAKVQWKVDNALQSGNSQESVTEQDSKDSTYSLSSTLTLSKADYEKHKVYACEVTHQGLSSPVTKSFNRGEC
modifications: afucosylated Fc glycan (made in FUT8-deficient expi293 cells)

hCD16 ADCC assay EC50 [5]: 2.54 nM
binding result [6]: no binding (tested: 6 ug/ml)
EC50 [7]: 4.61 nM
Kd [2]: 1.76 nM
B3: PI-4026-5 (antibody, human IgG1, kappa)
heavy: not shown
light: B2 light
notes: fucosylated form made in expi293 cells

EC50 [8]: 7.16 nM
EC50 [9]: 4.67 nM
EC50 [10]: 3.62 nM
hCD16 reporter assay EC50 (nM), experiment 1 [11]: 0.09 nM
hCD16 reporter assay EC50 (nM), experiment 2 [11]: 0.28 nM
hCD16 reporter assay EC50 (nM), experiment 3 [11]: 0.11 nM
binding result [12]: binds
EC50 [13]: 7.84 nM
Kd [14]: 1.41 nM
Kd [2]: 1.41 nM
EC50 [15]: 42.8 nM
hCD16 ADCC assay EC50 [3]: 0.28 nM
EC50 [4]: 3.62 nM
B4: PI64052 (afucosylated PI-4026-5-M100L) (antibody, human IgG1, kappa)
heavy: not shown
light: B2 light
modifications: afucosylated Fc glycan (made in FUT8-deficient expi293 cells)

Kd [2]: 8.66 nM
hCD16 ADCC assay EC50 [3]: 0.33 nM
EC50 [4]: 56 nM
B5: afucosylated PI-4026-5-M100E (antibody, human IgG1, kappa)
heavy: not shown
light: B2 light
modifications: afucosylated Fc glycan (made in FUT8-deficient expi293 cells)

Kd [2]: 13.4 nM
hCD16 ADCC assay EC50 [3]: 0.39 nM
EC50 [4]: 22 nM
B6: afucosylated PI-4026-5-M100I (antibody, human IgG1, kappa)
heavy: not shown
light: B2 light
modifications: afucosylated Fc glycan (made in FUT8-deficient expi293 cells)

hCD16 ADCC assay EC50 [5]: 6.92 nM
EC50 [16]: 28.6 nM
Kd [2]: 11.8 nM
B7: PI-4026-5-M100I (fucosylated) (antibody, human IgG1, kappa)
heavy: not shown
light: B2 light

hCD16 ADCC assay EC50 [5]: 5.86 nM
EC50 [7]: 4.85 nM
binding result [12]: binds
Kd [2]: 1.43 nM
B8: PI-4026-5-M100L (fucosylated) (antibody, human IgG1, kappa)
heavy: not shown
light: B2 light
notes: hIgG1, fucosylated; also called fucosylated parent of PI64052

hCD16 ADCC assay EC50 [5]: 8.6 nM
EC50 [7]: 6.04 nM
binding result [12]: binds
Kd [2]: 0.66 nM
B9: PI-4026-5-M100Q (fucosylated) (antibody, human IgG1, kappa)
heavy: not shown
light: B2 light
notes: hIgG1, fucosylated; also called fucosylated parent of PI64062

EC50 [8]: 7.84 nM
EC50 [9]: 3.25 nM
EC50 [10]: 2.07 nM
hCD16 reporter assay EC50 (nM), experiment 1 [11]: 0.08 nM
hCD16 reporter assay EC50 (nM), experiment 2 [11]: 0.29 nM
hCD16 reporter assay EC50 (nM), experiment 3 [11]: 0.09 nM
binding result [12]: binds
EC50 [13]: 7.94 nM
Kd [14]: 0.45 nM
Kd [2]: 0.45 nM
EC50 [15]: 7.89 nM
hCD16 ADCC assay EC50 [3]: 0.29 nM
EC50 [4]: 2.07 nM
B10: PI64062 (afucosylated PI-4026-5-M100Q) (antibody, human IgG1, kappa)
heavy: not shown
light: B2 light
modifications: afucosylated Fc glycan (made in FUT8-deficient expi293 cells)

hCD16 ADCC assay EC50 [5]: 3.18 nM
EC50 [17]: 58 nM
Kd [2]: 6.19 nM
B11: PI-4026-5-M100E (fucosylated) (antibody, human IgG1, kappa)
heavy: not shown
light: B2 light

— patent US20200255529A1 (PIONYR IMMUNOTHERAPEUTICS, published 2020)
